Measured values published in PMC11243334, “Synthesis and Evaluation of the First ^68Ga-Labeled C-Terminal Hydroxamate-Derived Gastrin-Releasing Peptide Receptor-Targeted Tracers for Cancer Imaging with Positron Emission Tomography” (Molecules, 2024).
Where two headings read alike, the source gives them in different places.

What was measured:
[1] = Ex vivo biodistribution in PC-3 tumor-bearing mice; conditions: male, mouse, iv, total radioactivity, mean ± SD, n = 4; for tissue uptake at 1 h: NOD.Cg-Rag1^tm1Mom Il2rg^tm1Wjl/SzJ (NRG); for tissue to tissue ratio at 1 h: NOD.Cg-Rag1tm1Mom Il2rgtm1Wjl/SzJ (NRG)
Experimental: Biodistribution studies were conducted for ^68Ga-labeled SB3, LW02075 and LW02050 in PC-3 tumor-bearing mice (n = 4).
(§1) Imaging and biodistribution studies were performed on male NOD.Cg-Rag1^tm1Mom Il2rg^tm1Wjl/SzJ (NRG) mice following previously published procedures. The experiments were conducted following the guidelines established by the Canadian Council on Animal Care and approved by Animal Ethics Committee of the University of British Columbia. The mice were sedated (2.5% isoflurane in oxygen) and injected with 5 × 10^6 PC-3 cells (100 µL; 1:1 PBS/Matrigel) subcutaneously behind the left shoulder. The tumor-bearing mice were used for PET/CT imaging and biodistribution studies when the tumor grew to 5–8 mm in diameter.
For biodistribution studies, the mice were injected with the radiotracer (~2–4 MBq), as described above. Blocking of [^68Ga]Ga-LW02075 and [^68Ga]Ga-LW02050 was conducted by co-injection with 100 μg nonradioactive Ga-LW02075 and Ga-LW02050, respectively, through a lateral caudal tail vein under anaesthesia. At 1 h post injection, the mice were sedated and euthanized by CO2 inhalation. Blood was collected via cardiac puncture, and organs/tissues of interest were collected, weighed, and counted on a Perkin Elmer (Waltham, MA, USA) Wizard2 2480 automatic gamma counter.

PC-3 tumor xenografts = test: PET/CT imaging in mice bearing PC-3 tumor xenografts; type: in vivo; conditions: 1 h post injection, mice
Experimental: as §1
PET/CT imaging experiments were performed on a Siemens (Knoxville, TN, USA) Inveon micro PET/CT scanner. Each tumor-bearing mouse was injected with ~3–6 MBq of ^68Ga-labeled tracer through a lateral caudal tail vein under anaesthesia. At around 50 min post injection, a 10 min CT scan was obtained first for localization and attenuation correction after segmentation for reconstructing the PET image, followed by a 10 min static PET scan.

physchem = conditions: n-octanol/DPBS, pH 7.4
Experimental: LogD7.4 values of [^68Ga]Ga-LW02075, [^68Ga]Ga-LW02050, and [^68Ga]Ga-SB3 were measured via the shake flask method. An aliquot of the ^68Ga-labeled tracer (~1.85 MBq) was added to a 15 mL falcon tube containing 3 mL of n-octanol and 3 mL of DPBS (pH 7.4) followed by 1 min of vortex (n = 3). After that, the mixture was centrifuged at 5000 rpm for 10 min, and samples of the n-octanol (1 mL) and buffer (1 mL) layers were collected and counted on a Perkin Elmer (Waltham, MA, USA) Wizard2 2480 automatic gamma counter. The LogD7.4 values of [^68Ga]Ga-LW02075, [^68Ga]Ga-LW02050, and [^68Ga]Ga-SB3 were calculated following the equation: LogD7.4 = log10[(counts in the n-octanol phase)/(counts in the buffer phase)].

CC(C)C[C@H](NC(=O)[C@H](Cc1c[nH]cn1)NC(=O)CNC(=O)[C@@H](NC(=O)[C@H](C)NC(=O)[C@H](Cc1c[nH]c2ccccc12)NC(=O)[C@H](CCC(N)=O)NC(=O)[C@@H](Cc1ccccc1)NC(=O)COCC(=O)Nc1ccc(CNC(=O)CN2CCN(CC(=O)O)CCN(CC(=O)O)CCN(CC(=O)O)CC2)cc1)C(C)C)C(=O)NO [[^68Ga]Ga-LW02075, [^68Ga]Ga-DOTA-pABzA-DIG-D-Phe-Gln-Trp-Ala-Val-Gly-His-Leu-NHOH, metal not drawn]
tissue uptake at 1 h ([1]; PC-3 tumor, 1 h blocked: co-injected with 100 µg nonradioactive Ga-complexed standard, read-out: PC-3 tumor uptake, blocked): 1.83 ± 0.22 %ID/g | tissue uptake at 1 h ([1]; PC-3 tumor, 1 h post injection, read-out: PC-3 tumor uptake): 3.97 ± 1.71 %ID/g | tissue uptake at 1 h ([1]; adrenal glands, 1 h blocked: co-injected with 100 µg nonradioactive Ga-complexed standard, read-out: Adrenal glands uptake, blocked): 1.02 ± 0.59 %ID/g | tissue uptake at 1 h ([1]; adrenal glands, 1 h post injection, read-out: Adrenal glands uptake): 4.42 ± 2.41 %ID/g | tissue uptake at 1 h ([1]; blood, 1 h blocked: co-injected with 100 µg nonradioactive Ga-complexed standard, read-out: Blood uptake, blocked): 1.15 ± 0.26 %ID/g | tissue uptake at 1 h ([1]; blood, 1 h post injection, read-out: Blood uptake): 0.76 ± 0.41 %ID/g | tissue uptake at 1 h ([1]; bone, 1 h blocked: co-injected with 100 µg nonradioactive Ga-complexed standard, read-out: Bone uptake, blocked): 0.21 ± 0.07 %ID/g | tissue uptake at 1 h ([1]; bone, 1 h post injection, read-out: Bone uptake): 0.2 ± 0.2 %ID/g | tissue uptake at 1 h ([1]; brain, 1 h blocked: co-injected with 100 µg nonradioactive Ga-complexed standard, read-out: Brain uptake, blocked): 0.03 ± 0.01 %ID/g | tissue uptake at 1 h ([1]; brain, 1 h post injection, read-out: Brain uptake): 0.03 ± 0.01 %ID/g | tissue uptake at 1 h ([1]; fat, 1 h blocked: co-injected with 100 µg nonradioactive Ga-complexed standard, read-out: Fat uptake, blocked): 0.12 ± 0.02 %ID/g | tissue uptake at 1 h ([1]; fat, 1 h post injection, read-out: Fat uptake): 0.08 ± 0.05 %ID/g | tissue uptake at 1 h ([1]; heart, 1 h blocked: co-injected with 100 µg nonradioactive Ga-complexed standard, read-out: Heart uptake, blocked): 0.34 ± 0.04 %ID/g | tissue uptake at 1 h ([1]; heart, 1 h post injection, read-out: Heart uptake): 0.24 ± 0.13 %ID/g | tissue uptake at 1 h ([1]; kidneys, 1 h blocked: co-injected with 100 µg nonradioactive Ga-complexed standard, read-out: Kidneys uptake, blocked): 4.98 ± 1.59 %ID/g | tissue uptake at 1 h ([1]; kidneys, 1 h post injection, read-out: Kidneys uptake): 3.11 ± 1.18 %ID/g | tissue uptake at 1 h ([1]; large intestine, 1 h blocked: co-injected with 100 µg nonradioactive Ga-complexed standard, read-out: Large intestine uptake, blocked): 0.4 ± 0.17 %ID/g | tissue uptake at 1 h ([1]; large intestine, 1 h post injection, read-out: Large intestine uptake): 1.71 ± 0.47 %ID/g | tissue uptake at 1 h ([1]; liver, 1 h blocked: co-injected with 100 µg nonradioactive Ga-complexed standard, read-out: Liver uptake, blocked): 5.92 ± 1.69 %ID/g | tissue uptake at 1 h ([1]; liver, 1 h post injection, read-out: Liver uptake): 4.14 ± 1.5 %ID/g | tissue uptake at 1 h ([1]; lungs, 1 h blocked: co-injected with 100 µg nonradioactive Ga-complexed standard, read-out: Lungs uptake, blocked): 0.94 ± 0.17 %ID/g | tissue uptake at 1 h ([1]; lungs, 1 h post injection, read-out: Lungs uptake): 0.75 ± 0.41 %ID/g | tissue uptake at 1 h ([1]; muscle, 1 h blocked: co-injected with 100 µg nonradioactive Ga-complexed standard, read-out: Muscle uptake, blocked): 0.27 ± 0.14 %ID/g | tissue uptake at 1 h ([1]; muscle, 1 h post injection, read-out: Muscle uptake): 0.21 ± 0.18 %ID/g | tissue uptake at 1 h ([1]; pancreas, 1 h blocked: co-injected with 100 µg nonradioactive Ga-complexed standard, read-out: Pancreas uptake, blocked): 1.55 ± 0.83 %ID/g | tissue uptake at 1 h ([1]; pancreas, 1 h post injection, read-out: Pancreas uptake): 17.8 ± 5.24 %ID/g | tissue uptake at 1 h ([1]; small intestine, 1 h blocked: co-injected with 100 µg nonradioactive Ga-complexed standard, read-out: Small intestine uptake, blocked): 5.62 ± 1.86 %ID/g | tissue uptake at 1 h ([1]; small intestine, 1 h post injection, read-out: Small intestine uptake): 6.72 ± 1.94 %ID/g | tissue uptake at 1 h ([1]; spleen, 1 h blocked: co-injected with 100 µg nonradioactive Ga-complexed standard, read-out: Spleen uptake, blocked): 0.35 ± 0.12 %ID/g | tissue uptake at 1 h ([1]; spleen, 1 h post injection, read-out: Spleen uptake): 0.26 ± 0.13 %ID/g | tissue uptake at 1 h ([1]; stomach, 1 h blocked: co-injected with 100 µg nonradioactive Ga-complexed standard, read-out: Stomach uptake, blocked): 0.73 ± 0.29 %ID/g | tissue uptake at 1 h ([1]; stomach, 1 h post injection, read-out: Stomach uptake): 1.23 ± 0.22 %ID/g | tissue uptake at 1 h ([1]; testes, 1 h blocked: co-injected with 100 µg nonradioactive Ga-complexed standard, read-out: Testes uptake, blocked): 0.3 ± 0.06 %ID/g | tissue uptake at 1 h ([1]; testes, 1 h post injection, read-out: Testes uptake): 0.17 ± 0.1 %ID/g | tissue to tissue ratio at 1 h ([1]; tumor and bone, 1 h blocked: co-injected with 100 µg nonradioactive Ga-complexed standard, read-out: Tumor/bone uptake ratio, blocked): 9.3 ± 2.39 | tissue to tissue ratio at 1 h ([1]; tumor and bone, 1 h post injection, read-out: Tumor/bone uptake ratio): 30.6 ± 18.9 | tissue to tissue ratio at 1 h ([1]; tumor and kidney, 1 h blocked: co-injected with 100 µg nonradioactive Ga-complexed standard, read-out: Tumor/kidney uptake ratio, blocked): 0.39 ± 0.09 | tissue to tissue ratio at 1 h ([1]; tumor and kidney, 1 h post injection, read-out: Tumor/kidney uptake ratio): 1.28 ± 0.33 | tissue to tissue ratio at 1 h ([1]; tumor and muscle, 1 h blocked: co-injected with 100 µg nonradioactive Ga-complexed standard, read-out: Tumor/muscle uptake ratio, blocked): 7.85 ± 3.13 | tissue to tissue ratio at 1 h ([1]; tumor and muscle, 1 h post injection, read-out: Tumor/muscle uptake ratio): 24.8 ± 9.99 | tissue to tissue ratio at 1 h ([1]; tumor and pancreas, 1 h blocked: co-injected with 100 µg nonradioactive Ga-complexed standard, read-out: Tumor/pancreas uptake ratio, blocked): 1.46 ± 0.76 | tissue to tissue ratio at 1 h ([1]; tumor and pancreas, 1 h post injection, read-out: Tumor/pancreas uptake ratio): 0.22 ± 0.05 | tissue to tissue ratio at 1 h ([1]; tumor and whole blood, 1 h blocked: co-injected with 100 µg nonradioactive Ga-complexed standard, read-out: Tumor/blood uptake ratio, blocked): 1.65 ± 0.4 | tissue to tissue ratio at 1 h ([1]; tumor and whole blood, 1 h post injection, read-out: Tumor/blood uptake ratio): 5.51 ± 1.49 | Excretion pathway in PET images (PC-3 tumor xenografts): excreted primarily through the renal pathway | Pancreas in PET images (PC-3 tumor xenografts): high pancreas uptake | logD (physchem): -2.09 ± 0.05
